The values below come from US20230293713A1, “ANTI-TM4SF1 ANTIBODY DRUG CONJUGATES AND METHODS OF USING SAME” (priority 2020, published 2023).

For data set [1], the system named is HUVEC. The experiment in a line: Cell killing assay in HUVEC (PrestoBlue viability, 5 days). It counts as cell-based. Particulars: Homo sapiens. The method, then:
To assess the effect of anti-TM4SF1 ADCs conjugated to carfilzomib, cytotoxicity of treated cell lines were assessed in cultured endothelial cell (HUVEC) and tumor cells (MiaPaca2 and SKOV3) in vitro. HUVEC was treated with free carfilzomib, CFZ-ND-ADC DAR 2.5, and CFZ-ND-ADC DAR 6.7, and maytansine-ND-ADC (DAR 2.0) and cytotoxicity was assessed (FIG. 2A). Cytotoxicity of HUVEC correlates with CFZ DAR. […] Cell killing assay. […] RPMI/10% FBS for MiaPaca2 and SKOV3). Cells are cultured for overnight at 37° C. degrees. On day 2, exemplary ADCs containing CFZ are serially diluted 5-fold in the culture media, and 100 µL of the diluted compounds is transferred to the cell plates. The final top concentration of the test exemplary ADCs in the cell plates is 333.335 nM and the lowest concentration is 0.0043 nM. […] 10 µl PrestoBlue HS cell viability reagent (ThermoFisher cat# P50201) is added to each well and incubated for 1 hour in CO2 incubator before reading the […] at 570 nm/600 nm excitation and emission through a plate reader (Varioskan™ LUX multimode microplate reader). To assess the effect of various anti-TM4SF1 ADCs conjugated to carfilzomib, cytotoxicity of treated cell lines were assessed. HUVEC was treated with free carfilzomib, and six ADCs (Table 1A) conjugated with carfilzomib (CFZ) with various linkers and/or DAR values, and cytotoxicity was assessed (Table 1B).

For data set [2] the following is noted: in vivo; cited from earlier work.
Data set [3] deals with T1, Transmembrane-4 L six family member-1 (TM4SF1) (human, UniProt P30408 1-202, limits assumed).
T1 construct: also called human TM4SF1; hTM4SF1
T1 sequence: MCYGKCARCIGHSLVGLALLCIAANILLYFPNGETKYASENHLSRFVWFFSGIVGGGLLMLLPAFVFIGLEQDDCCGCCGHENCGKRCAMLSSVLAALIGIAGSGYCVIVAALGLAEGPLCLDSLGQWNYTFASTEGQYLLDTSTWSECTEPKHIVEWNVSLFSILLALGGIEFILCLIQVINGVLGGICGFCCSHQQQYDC
Briefly: screen, method not described.

Like-named read-outs stand apart in the source and are kept apart here.

For the molecule `CC(C)C[C@H](NC(=O)[C@H](CCc1ccccc1)NC(=O)CN1CCOCC1)C(=O)N[C@@H](Cc1ccccc1)C(=O)N[C@@H](CC(C)C)C(=O)[C@@]1(C)CO1` [CFZ, (S)-4-Methyl-N—((S)-1-(((S)-4-methyl-1-((R)-2-methyloxiran-2-yl)-1-oxopentan-2-yl)amino)-1-oxo-3-phenylpropan-2-yl)-2-((S)-2-(2-morpholinoacetamido)-4-phenylbutanamido)-pentanamide], the EC50 in data set [1] (FIG. 2A, read-out: EC50, cytotoxicity of HUVEC) came out at 11.9 nM; in data set [1] (read-out: killing in vitro (EC50 nM) HUVEC) it was 11.9 nM.
Consider `COc1ccc(/C=C\c2cc(OC)c(OC)c(OC)c2)cc1OP(=O)(O)O` [CA4P], for which the “patients who experienced heart attacks while being treated” value in data set [2] is “seven”.

B1: AGX-A07 (antibody, V domains shown)
VH: QIQLVQSGPELKKPGETVKISCKASGYTFTNYGVKWVKQAPGKDLKWMGWINTYTGNPIYAADFKGRFAFSLETSASTAFLQINNLKNEDTATYFCVRFQYGDYRYFDVWGAGTTVTVSS
VL: QIILSQSPAILSASPGEKVTMTCRANSGISFINWYQQKPGSSPKPWIYGTANLASGVPARFGGSGSGTSYSLTISRVEAEDAATYYCQQWSSNPLTFGAGTKLELR
notes: also called murine monoclonal antibody AGX-A07
For B1, the binding result in data set [3] is “binds”.

B2: AGX-A09 (antibody, V domains shown)
VH: EVQLQQSGPELVKPGASVKMSCKASGYTFSSYVMHWVKQKPGQGLEWIGYINPYSDVTNYNEKFKGKATLTSDRSSNTAYMELSSLTSEDSAVYYCARNYFDWGRGTLVTVSA
VL: DIQMTQSPASLSASVGETVTITCRASKNVYSYLAWFQQKQGKSPQLLVYNAKTLAEGVPSRFSGGGSGTQFSLKINSLQPADFGSYYCQHHYNIPFTFGSGTKLEIK
notes: Monoclonal murine antibody; also called murine monoclonal antibody AGX-A09
For B2, in data set [3], the binding result was “binds”.

B3: AGX-A08 (antibody, V domains shown)
VH: EVQLQQSGPELVKPGASVKLSCKASGYTVTSYVMHWVKQKPGQGLEWIGYINPYSDVTNCNEKFKGKATLTSDKTSSTAYMELSSLTSEDSAVYYCSSYGGGFAYWGQGTLVTVSA
VL: DIQMTQSPASLSASVGEPVTITCRASKNIYTYLAWYHQKQGKSPQFLVYNARTLAGGVPSRLSGSGSVTQFSLNINTLHREDLGTYFCQHHYDTPYTFGGGTNLEIK
notes: Monoclonal murine antibody; also called murine monoclonal antibody AGX-A08
B3: the binding result in data set [3] is given as “binds”.

B4: AGX-A05 (antibody, V domains shown)
VH: EVQVQQSGPELVKPGASVKMSCKASGYTFTSYVMHWVKQKPGQGLEWIGYINPNNDNINYNEKFKGKASLTSDKSSNTVYMELSSLTSEDSAVYYCAGYGNSGANWGQGTLVTVSA
VL: DIQMTQSPASLSASVGETVTITCRTSKNIFNFLAWYHQKQGRSPRLLVSHTKTLAAGVPSRFSGSGSGTQFSLKINSLQPEDFGIYYCQHHYGTPWTFGGGTKLEIK
notes: Monoclonal murine antibody; also called murine monoclonal antibody AGX-A05
As to B4, in data set [3], the binding result is recorded as “binds”.

B5: AGX-A04 (antibody, V domains shown)
VH: EVQLQQSGPELVKPGASVKISCKTSGYTFTDYTMHWVRQSHGKSLEWIGSFNPNNGGLTNYNQKFKGKATLTVDKSSSTVYMDLRSLTSEDSAVYYCTRIRATGFDSWGQGTTLTVSS
VL: DIVMSQSPSSLAVSAGEKVTMSCKSSQSLLNSRTRKNYLAWYQQKPGQSPKLLIYWASTRESGVPDRFTGSGSGTDFTLTISNVQAEDLTVYYCKQSYNPPWTFGGGTKLEIK
notes: Monoclonal murine antibody; also called murine monoclonal antibody AGX-A04
Turning to B5, in data set [3], the binding result is “binds”.

B6: AGX-A03 (antibody, V domains shown)
VH: QIQLVQSGPELKKPGETVKISCKASGYSFRDYGMNWVKQAPGRTFKWMGWINTYTGAPVYAADFKGRFAFSLDTSASAAFLQINNLKNEDTATYFCARWVSYGNNRNWFFDFWGAGTTVTVSS
VL: DVLMTQTPLSLPVRLGDQASISCRSSQTLVHSNGNTYLEWYLQKPGQSPKLLIYKVSNRLSGVPDRFSGSGSGTDFTLKISRVETEDLGVYYCFQGSHGPWTFGGGTKLEIK
notes: Monoclonal murine antibody; also called Antibody AGX-A03; murine monoclonal antibody AGX-A03
With B6, the binding result in data set [3] is reported as “binds”.
